The target of assay [1] is epidermal growth factor receptor (ovine pulmonary artery smooth muscle cells) (ovine (endogenous in PASMC)). In words: SDS-PAGE and Western blot of SDS-resistant dimer. In general terms: Immunoblotting shows a protein as a band on a membrane.
The target of assay [2] is epidermal growth factor receptor (rat lung) (rat (endogenous in lung tissue)). Description: SDS-PAGE and Western blot of SDS-resistant dimer.
For assay [3], the target named is recombinant human catalase (human) (UniProt P04040). Description: SEC. In general terms: SEC sorts molecules by how far they enter the pores of the column.
For assay [4] the target is unchanged. In words: native gel or EMSA. On the technique in general: A gel shift assay detects complexes by their altered migration in electrophoresis.

Values joined by “and” are separate entries in the source; they are usually repeats but may differ in a detail not shown here. Identical values can stand only once.

The substance “epidermal growth factor receptor (ovine pulmonary artery smooth muscle cells)” showed a stoichiometry N in assay [1] of 2.

“epidermal growth factor receptor (rat lung)” had a stoichiometry N in assay [2] of 2.

On to “recombinant human catalase (from UniProt P04040 1-527) (enzyme)”, for which the stoichiometry N was 4 and 3 and 2 in assay [3]; 4 in assay [4].

As usually defined, the stoichiometry N is the number of molecules, sites or subunits per partner or assembly.

The record behind these values is PMC5929487.
